# Test results as given in patent US7927849B2, “Laccase enzyme and use thereof” (AB Enzymes OY, priority 2004, dated 2011).
# B1: TaLcc1: Recombinant Thielavia arenaria ALKO4197 laccase 1 (SEQ ID NO: 12) produced in Trichoderma reesei strains RF5597/RF5598 (protein)
# chain: MKSWAAAVALMVGILSPHAAAAPPANPVQRDMLQVLEARQSGPTCNTPSNRACWTNGFDINTDYEVSTPNTGRTVAYQLTLTEKENWIGPDGVLKNVVMLVNDKIIGPTIRANWGDNIEVTVINNLKTNGTSMHWHGLRQLGNVFNDGANGVTECPIPPKGGRKTYKFRATQYGTSWYHSHFSAQYGNGVVGTIQIDGPASLPYDIDLGVFPLMDYYYRSADELVHFTQSNGAPPSDNVLFNGTARHPETGAGQWYNVTLTPGKRHRLRIINTSTDNHFQVSLVGHNMTVIATDMVPVNAFTVSSLFLAVGQRYDVTIDANSPVGNYWFNVTFGDGLCGSSNNKFPAAIFRYQGAPATLPTDQGLPVPNHMCLDNLNLTPVVTRSAPVNNFVKRPSNTLGVTLDIGGTPLFVWKVNGSAINVDWGKPILDYVMSGNTSYPVSDNIVQVDAVDQWTYWLIENDPTNPIVSLPHPMHLHGHDFLVLGRSPDELPSAGVRHIFDPAKDLPRLKGNNPVRRDVTMLPAGGWLLLAFKTDNPGAWLFHCHIAWHVSGGLSVDFLERPNDLRTQLNSNAKRADRDDFNRVCREWNAYWPTNPFPKIDSGLRHRFVEESEWMVR
# modifications: Thielavia arenaria ALKO4197; (1)..(617) Deduced amino acid sequence of Thielavia arenaria ALKO4197 laccase 1 (Ta Lcc1)
# How the values were obtained:
# [1] = Specific activity on ABTS; format: biochemical; settings: 25 mM succinate buffer pH 4.5, 25° C.
# Description: The activity assay was carried out in accordance with the method developed by Niku-Paavola et al. (1988). The sample was diluted with 0.025 M succinate buffer, pH 4.5. […] The activity is expressed as nano katals.
# (§1) Specific activities of the purified Thielavia laccase were determined towards different laccase substrates.
# [2] = Specific activity on guaiacol; format: biochemical; settings: 25 mM MES buffer, pH 5.5
# Description: as §1
# [3] = Isoelectric focusing (pI); format: physicochemical; settings: pH range 3-9, ABTS staining
# Description: Molecular weight of the Thielavia arenaria laccase (wt TaLcc1) was determined on SDS-PAGE according to Laemmli (1970). The gels used in the SDS-PAGE analysis were ready-made 12% Tris HCl gels (BioRad). Protein bands were visualized by staining with Coomassie Brilliant Blue (R 350; Pharmacia) and compared with molecular weight markers (Prestained Protein Marker Broad Range #7708S; New England BioLabs, Beverly, Mass.). The molecular weight of the Thielavia areanaria laccase was approximately 80 kDa. The isoelectric point of the laccase was determined with isoelectric focusing within the pH range of 3-9 (Pharmalyte IEF, Pharmacia) on a LKB 2117 Multiphor II Electrophoresis System (LKB Pharmacia, Bromma, Sweden) according to the manufacturer's instructions.
# The purified recombinant Thielavia arenaria TaLcc1 was characterized in terms of pH optimum, thermal stability, and pI as described in Example 2. The molecular weight was determined by MALDI-TOF mass spectrometry on a Ultraflex™ time-of-flight instrument (BrukerDaltonics, Germany) as previously described (Palonen et al., 2003). The redox potential of TaLcc1 was also determined with a combined Pt-AgCl/KCl microelectrode at pH 5.0 according to Sigoillot et al (2004)
# [4] = Denim bleaching: laccase-mediator (100 nkat/g, 5 mg/g, 30 min, 60° C.) compared to sodium hypochlorite (15 min, 40° C.)
# Description: Different types of demin were treated with a TaLcc1 laccase product from Trichoderma strain RF5597 and DeniLite II Base from Novozymes and the results obtained were compared to hypochlorite bleaching. All together 27 pieces of different kinds of denim (whole jeans), which had been previously washed with cellulase after desizing to different abrasion levels or had been only desized with ECOSTONE®A200 (60° C., 10 min), were collected for the test (Table 15). The jeans were made of Indigo dyed denim, except the English jeans contained Indigo dyed denim with sulphur bottom. Jeans were cut in such a way that pieces from the same pair of jeans could be used for all tests.
# The jeans were made of Indigo dyed denim (right hand twill), except the English jeans contained Indigo dyed denim with sulphur bottom. The weights of the original (i.e. not desized) denim fabrics were typically higher than 475 g/m^2 (14 oz/yd^2). The weights of three 10 cm×10 cm pieces were measured after 24 hours incubation at room temperature (ca. 22° C. and at relative moisture ca. 64%).
# The laccase treatments were performed with Electrolux's Wascator FOM 71 CLS washer extractor under optimal conditions for each enzyme, described in Table 16. Methyl syringate (Example 7) was used as a mediator. Laccase was inactivated after draining by raising the pH above 11 by NaOH (10 min, 60° C.) and rinsing for three times. The fabrics were dried in a tumbler.
# The sodium hypochlorite bleaching was performed with Electrolux's Wascator FOM 71 CLS washer extractor using denim obtained from the same jeans as in laccase treatments under conditions described in Table 17. Sodium hydroxide was added before adding 25 ml/l of 10% sodium hypochlorite solution (Klorite Forte, Farmos Oy) to keep the pH above 10.5 during the treatment. After draining the bleach liquor, there was one 2 minutes rinsing step with the liquor ratio of 1:20 before dechlorinating with sodium thiosulphate. After dechlorinating the denim samples were rinsed 3 times for 2 minutes with the liquor ratio of 1:20. The fabrics were dried in a tumbler.
# The bleaching effect was evaluated by measuring the colour as reflectance values as in Example 7. […] Different looks were obtained depending on the type of the denim and cellulase treatment used. “Sulphur-bottom type” denim was the most difficult to bleach.
# [5] = all cellulase treated denim samples
# [6] = sample B1: Basic Jeans, Ecostone P1250
# [7] = sample E1: English jeans (sulphur bottom), desized only
# [8] = sample E2: English jeans, Ecostone NP2000
# [9] = sample E3: English jeans, Rocksoft NCE-EA
# [10] = sample E4: English jeans, Rocksoft NCE-2X
# [11] = sample E5: English jeans, Ecostone L900
# [12] = sample E6: English jeans, Ecostone L900
# [13] = sample E7: English jeans, Ecostone L900
# [14] = sample L1: Lee Cooper jeans, desized only
# [15] = sample L2: Lee Cooper jeans, Ecostone L
# [16] = sample L3: Lee Cooper jeans, Biotouch C29
# [17] = sample L4: Lee Cooper jeans, Ecostone L
# [18] = sample L5: Lee Cooper jeans, Indiage Max L
# [19] = sample L6: Lee Cooper jeans, Indiage Super L
# [20] = sample L7: Lee Cooper jeans, Ecostone CXP500 Exper.
# [21] = sample L8: Lee Cooper jeans, Ecostone CXP experimental
# [22] = sample L9: Lee Cooper jeans, Ecostone N400
# [23] = sample T1: Tincan jeans, desized only
# [24] = sample T2: Tincan jeans, Ecostone N400
# [25] = sample T3: Tincan jeans, Ecostone L300
# [26] = sample T4: Tincan jeans, Denimax 991S
# [27] = sample W1: Warric jeans, desized only
# [28] = sample W2: Warric jeans, Ecostone P4500
# [29] = sample W3: Warric jeans, Indiage Max G
# [30] = sample W4: Warric jeans, Ecostone NP2000
# [31] = sample W5: Warric jeans, Ecostone L900
# [32] = sample W6: Warric jeans, Denabraide MBL 65 E
molecule,measurement,setting,value
B1,Specific activity on ABTS,[1],910 nkat/mg
same,Specific activity on guaiacol,[2],61 nkat/mg
same,pI,[3],5.5-6.9
same,bleaching better than DeniLite II Base,[4]; [5],55-200%
same,bleaching better than sodium hypochlorite,[4]; [5],60-115%
same,increase of L* better than DeniLite II Base,[4]; fabrics only desized,over 100%
same,increase of L* compared with sodium hypochlorite,[4]; fabrics only desized,equal or better
same,Increase of L*,[4]; [6],17.71
same,L* after treatment,[4]; [6],47.19
same,b* after treatment,[4]; [6],−12.75
same,Increase of L*,[4]; [7],5.24
same,L* after treatment,[4]; [7],22.71
same,b* after treatment,[4]; [7],−13.97
same,Increase of L*,[4]; [8],10.51
same,L* after treatment,[4]; [8],35.99
same,b* after treatment,[4]; [8],−14.08
same,Increase of L*,[4]; [9],11.26
same,L* after treatment,[4]; [9],36.52
same,b* after treatment,[4]; [9],−14.46
same,Increase of L*,[4]; [10],11.75
same,L* after treatment,[4]; [10],38.79
same,b* after treatment,[4]; [10],−13.94
same,Increase of L*,[4]; [11],12.34
same,L* after treatment,[4]; [11],37.53
same,b* after treatment,[4]; [11],−14.03
same,Increase of L*,[4]; [12],11.63
same,L* after treatment,[4]; [12],34.17
same,b* after treatment,[4]; [12],−14.79
same,Increase of L*,[4]; [13],13.16
same,L* after treatment,[4]; [13],36.00
same,b* after treatment,[4]; [13],−14.95
same,Increase of L*,[4]; [14],12.92
same,L* after treatment,[4]; [14],33.13
same,b* after treatment,[4]; [14],−19.41
same,Increase of L*,[4]; [15],19.08
same,L* after treatment,[4]; [15],50.89
same,b* after treatment,[4]; [15],−13.17
same,Increase of L*,[4]; [16],19.21
same,L* after treatment,[4]; [16],47.66
same,b* after treatment,[4]; [16],−14.82
same,Increase of L*,[4]; [17],18.97
same,L* after treatment,[4]; [17],48.39
same,b* after treatment,[4]; [17],−13.83
same,Increase of L*,[4]; [18],19.24
same,L* after treatment,[4]; [18],47.73
same,b* after treatment,[4]; [18],−14.28
same,Increase of L*,[4]; [19],17.17
same,L* after treatment,[4]; [19],46.71
same,b* after treatment,[4]; [19],−14.68
same,Increase of L*,[4]; [20],15.75
same,L* after treatment,[4]; [20],42.95
same,b* after treatment,[4]; [20],−16.23
same,Increase of L*,[4]; [21],17.27
same,L* after treatment,[4]; [21],46.73
same,b* after treatment,[4]; [21],−14.86
same,Increase of L*,[4]; [22],16.22
same,L* after treatment,[4]; [22],45.02
same,b* after treatment,[4]; [22],−14.91
same,Increase of L*,[4]; [23],9.80
same,L* after treatment,[4]; [23],34.82
same,b* after treatment,[4]; [23],−16.36
same,Increase of L*,[4]; [24],14.50
same,L* after treatment,[4]; [24],42.70
same,b* after treatment,[4]; [24],−14.60
same,Increase of L*,[4]; [25],18.01
same,L* after treatment,[4]; [25],47.09
same,b* after treatment,[4]; [25],−14.04
same,Increase of L*,[4]; [26],16.37
same,L* after treatment,[4]; [26],43.53
same,b* after treatment,[4]; [26],−15.18
same,Increase of L*,[4]; [27],10.51
same,L* after treatment,[4]; [27],28.54
same,b* after treatment,[4]; [27],−17.55
same,Increase of L*,[4]; [28],16.04
same,L* after treatment,[4]; [28],42.16
same,b* after treatment,[4]; [28],−14.48
same,Increase of L*,[4]; [29],15.53
same,L* after treatment,[4]; [29],44.08
same,b* after treatment,[4]; [29],−13.66
same,Increase of L*,[4]; [30],13.32
same,L* after treatment,[4]; [30],39.54
same,b* after treatment,[4]; [30],−14.72
same,Increase of L*,[4]; [31],16.52
same,L* after treatment,[4]; [31],40.49
same,b* after treatment,[4]; [31],−15.38
same,Increase of L*,[4]; [32],15.57
same,L* after treatment,[4]; [32],39.58
same,b* after treatment,[4]; [32],−15.62
